Test results: patent US20240383989A1 (PHARMABCINE, published 2024)

Tests used:
[1] = target: human KDR1 to 3 domain (human) (UniProt P35968); experiment: BLI (Octet), KDR1 to 3 domains on biosensor, scFv added, off-rate screening
[2] = target: human KDR1 to 3 domain (human) (UniProt P35968); experiment: BLI (Octet), antibody on biosensor, human KDR1 to 3 as analyte
human KDR1 to 3 domain [3] = target: T1, human KDR1 to 3 domain (human, UniProt P35968 20-327, limits assumed); experiment: BLI (Octet), KDR1 to 3 domains on biosensor, scFv added, off-rate screening
T1 construct: domain: KDR1 to 3 domain; The panning antigen was KDR1 to 3 domain-Fc; Treated as one molecule; also called KDR1 to 3 domains; KDR D1 to D3
T1 sequence (P35968 20-327 limits assumed): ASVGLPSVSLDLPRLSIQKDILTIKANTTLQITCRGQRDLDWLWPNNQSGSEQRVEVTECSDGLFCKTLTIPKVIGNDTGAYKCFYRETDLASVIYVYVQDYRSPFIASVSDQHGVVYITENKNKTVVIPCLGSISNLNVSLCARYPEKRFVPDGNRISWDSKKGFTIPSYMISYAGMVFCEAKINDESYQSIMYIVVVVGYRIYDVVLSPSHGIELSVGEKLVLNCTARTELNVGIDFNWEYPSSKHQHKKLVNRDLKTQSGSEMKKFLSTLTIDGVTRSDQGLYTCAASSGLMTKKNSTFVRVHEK

human KDR1 to 3 domain [4] = target: T1, human KDR1 to 3 domain; experiment: BLI (Octet), antibody on biosensor, human KDR1 to 3 as analyte
Experimental: The binding of the selected antibodies to the KDR1 to 3 domain was measured using the Octet system (Fortebio Inc. US).

Sequence of human KDR1 to 3 domain (human) (P35968 20-327 limits assumed): as above

B1: 6A6 (scFv) (scFv, from another filing, V domains shown)
VH: QMQLVQSGAEVKKPGASVKLSCKASGYTFSSYWMHWVRQAPGQRLEWMGEINPGNGHTNYNEKFKSRVTITVDKSASTAYMELSSLRSEDTAVYYCAKIWGPSLTSPFDYWGQGTLVTVSS
VL: SNFMLTQPPSVSVSPGKTARITCRGDNLGDVNVHWYQQRPGQAPVLVMYYDADRPSGIPERFSGSNSGNTATLTISGVEAGDEADYYCQVWDRTSEYVFGTGTKVTVLG
[1]
  koff: 0.000266 s⁻¹

B2: 6A6 (IgG) (antibody, from another filing, V domains shown)
VH: QMQLVQSGAEVKKPGASVKLSCKASGYTFSSYWMHWVRQAPGQRLEWMGEINPGNGHTNYNEKFKSRVTITVDKSASTAYMELSSLRSEDTAVYYCAKIWGPSLTSPFDYWGQGTLVTVSS
VL: SNFMLTQPPSVSVSPGKTARITCRGDNLGDVNVHWYQQRPGQAPVLVMYYDADRPSGIPERFSGSNSGNTATLTISGVEAGDEADYYCQVWDRTSEYVFGTGTKVTVLG
[2]
  Kd: 13.2 nM
  koff: 0.00168 s⁻¹
  kon: 127000 M⁻¹ s⁻¹

B3: D4 (scFv) (scFv, part only; not given: scFv linker, domain order, tags, V domains shown, not shown: another chain or arm of the molecule; small tags and cut ends)
VH: EVQLVESGGGLVQPGGSLRLSCAASGYTFSSYWMSWVRQAPGKGLEWVSEINPGNGHTNYNEKFKSRFTISRDKSKNTLYLQMNSLRAEDTAVYYCARHWGPSLTSPFDYWGQGTLVTVSS
VL: DIQMTQSPSSLSASVGDRVTITCRADNLGDVNVHWYQQKPGKAPKLLIYYDADRPSGVPSRFSGSNSGNDATLTISSLQPEDFATYYCQAPTNNDPYTFGQGTKVEIK
Human KDR1 to 3 domain [3]
  koff: 0.000165 s⁻¹

B4: LH-E7 (scFv) (scFv, V domains shown)
VH: EVQLVESGGGLVQPGGSLRLSCAASGYTFSSYWMSWVRQAPGKGLEWVSEINPGNGHTNYNEKFKSRFTISRDKSKNTLYLQMNSLRAEDTAVYYCARHWGPSLTSPFDYWGQGTLVTVSS
VL: DIQMTQSPSSLSASVGDRVTITCRADNLGDVNVHWYQQKPGKAPKLLIYYDADRPSGVPSRFSGSNSGNDATLTISSLQPEDFATYYCQAPTRIAPYTFGQGTKVEIKR
Human KDR1 to 3 domain [3]
  koff: 0.000111 s⁻¹

B5: LHL-G1 (scFv) (scFv, V domains shown)
VH: EVQLVESGGGLVQPGGSLRLSCAASGYTFSSYWMSWVRQAPGKGLEWVSEINPGNGHTNYNEKFKSRFTISRDKSKNTLYLQMNSLRAEDTAVYYCARSYRPSLTSPFDFWGQGTLVTVSS
VL: DIQMTQSPSSLSASVGDRVTITCRADNLGDVNVHWYQQKPGKAPKLLIYYDADRPSGVPSRFSGSNSGNDATLTISSLQPEDFATYYCQAPTTNEPYTFGQGTKVEIKR
Human KDR1 to 3 domain [3]
  koff: 0.000239 s⁻¹

B6: D3 (scFv) (scFv, part only; not given: scFv linker, domain order, tags, V domains shown, not shown: another chain or arm of the molecule; small tags and cut ends)
VH: EVQLVESGGGLVQPGGSLRLSCAASGYTFSSYWMSWVRQAPGKGLEWVSEINPGNGHTNYNEKFKSRFTISRDKSKNTLYLQMNSLRAEDTAVYYCARHWGPSLTSPFDYWGQGTLVTVSS
VL: DIQMTQSPSSLSASVGDRVTITCRADNLGDVNVHWYQQKPGKAPKLLIYYDADRPSGVPSRFSGSNSGNDATLTISSLQPEDFATYYCQAPTKNVPYTFGQGTKVEIK
Human KDR1 to 3 domain [3]
  koff: 0.00015 s⁻¹

B7: A5 (scFv) (scFv, part only; not given: scFv linker, domain order, tags, V domains shown, not shown: another chain or arm of the molecule; small tags and cut ends)
VH: EVQLVESGGGLVQPGGSLRLSCAASGYTFSSYWMSWVRQAPGKGLEWVSEINPGNGHTNYNEKFKSRFTISRDKSKNTLYLQMNSLRAEDTAVYYCARHWGPSLTSPFDYWGQGTLVTVSS
VL: DIQMTQSPSSLSASVGDRVTITCRADNLGDVNVHWYQQKPGKAPKLLIYYDADRPSGVPSRFSGSNSGNDATLTISSLQPEDFATYYCQAPTTHLPYTFGQGTKVEIK
Human KDR1 to 3 domain [3]
  koff: 0.000187 s⁻¹

B8: D4 (IgG) (antibody, V domains shown)
VH: EVQLVESGGGLVQPGGSLRLSCAASGYTFSSYWMSWVRQAPGKGLEWVSEINPGNGHTNYNEKFKSRFTISRDKSKNTLYLQMNSLRAEDTAVYYCARHWGPSLTSPFDYWGQGTLVTVSS
VL: DIQMTQSPSSLSASVGDRVTITCRADNLGDVNVHWYQQKPGKAPKLLIYYDADRPSGVPSRFSGSNSGNDATLTISSLQPEDFATYYCQAPTNNDPYTFGQGTKVEIKR
notes: Converted to IgG with the pfusess-hchg1 (human IgG1) and pfuse2ss-hclk (human kappa) vectors
Human KDR1 to 3 domain [4]
  Kd: 0.366 nM
  koff: 3.45e-05 s⁻¹

B9: D3 (IgG) (antibody, V domains shown)
VH: EVQLVESGGGLVQPGGSLRLSCAASGYTFSSYWMSWVRQAPGKGLEWVSEINPGNGHTNYNEKFKSRFTISRDKSKNTLYLQMNSLRAEDTAVYYCARHWGPSLTSPFDYWGQGTLVTVSS
VL: DIQMTQSPSSLSASVGDRVTITCRADNLGDVNVHWYQQKPGKAPKLLIYYDADRPSGVPSRFSGSNSGNDATLTISSLQPEDFATYYCQAPTKNVPYTFGQGTKVEIKR
notes: as for B8
Human KDR1 to 3 domain [4]
  Kd: 0.773 nM
  koff: 8.67e-05 s⁻¹
  kon: 112000 M⁻¹ s⁻¹

B10: LHL-G1 (IgG) (antibody, V domains shown)
VH: EVQLVESGGGLVQPGGSLRLSCAASGYTFSSYWMSWVRQAPGKGLEWVSEINPGNGHTNYNEKFKSRFTISRDKSKNTLYLQMNSLRAEDTAVYYCARSYRPSLTSPFDFWGQGTLVTVSS
VL: DIQMTQSPSSLSASVGDRVTITCRADNLGDVNVHWYQQKPGKAPKLLIYYDADRPSGVPSRFSGSNSGNDATLTISSLQPEDFATYYCQAPTTNEPYTFGQGTKVEIKR
notes: as for B8
Human KDR1 to 3 domain [4]
  koff: 0.000251 s⁻¹
  kon: 73700 M⁻¹ s⁻¹

B11: LH-E7 (IgG) (antibody, V domains shown)
VH: EVQLVESGGGLVQPGGSLRLSCAASGYTFSSYWMSWVRQAPGKGLEWVSEINPGNGHTNYNEKFKSRFTISRDKSKNTLYLQMNSLRAEDTAVYYCARHWGPSLTSPFDYWGQGTLVTVSS
VL: DIQMTQSPSSLSASVGDRVTITCRADNLGDVNVHWYQQKPGKAPKLLIYYDADRPSGVPSRFSGSNSGNDATLTISSLQPEDFATYYCQAPTRIAPYTFGQGTKVEIKR
notes: Converted to IgG; VH was cloned into Invivogen pfusess-hchg1 (human IgG1 heavy constant) and VL into pfuse2ss-hclk (human kappa constant); also called LH-67; LH-ET
Human KDR1 to 3 domain [4]
  Kd: 1.3 nM
  koff: 6.55e-05 s⁻¹
  kon: 50600 M⁻¹ s⁻¹

B12: A5 (IgG) (antibody, V domains shown)
VH: EVQLVESGGGLVQPGGSLRLSCAASGYTFSSYWMSWVRQAPGKGLEWVSEINPGNGHTNYNEKFKSRFTISRDKSKNTLYLQMNSLRAEDTAVYYCARHWGPSLTSPFDYWGQGTLVTVSS
VL: DIQMTQSPSSLSASVGDRVTITCRADNLGDVNVHWYQQKPGKAPKLLIYYDADRPSGVPSRFSGSNSGNDATLTISSLQPEDFATYYCQAPTTHLPYTFGQGTKVEIKR
notes: as for B8
Human KDR1 to 3 domain [4]
  Kd: 0.886 nM
  koff: 8.86e-05 s⁻¹
